Laboratory results from US20080058278A1, “ATTENUATION OF HYPEROXIA-INDUCED CELL DEATH WITH MITOCHONDRIAL ALDEHYDE DEHYDROGENASE” (THE CHILDREN'S MERCY HOSPITAL, priority 2006, published 2008).

T1: mtALDH (Homo sapiens, UniProt P05091)
T1 construct: endogenous in cells; host or cells: A549 human lung type II epithelial cells (isolated mitochondrial protein or cell homogenate supernatant)
T1 sequence (P05091 18-517): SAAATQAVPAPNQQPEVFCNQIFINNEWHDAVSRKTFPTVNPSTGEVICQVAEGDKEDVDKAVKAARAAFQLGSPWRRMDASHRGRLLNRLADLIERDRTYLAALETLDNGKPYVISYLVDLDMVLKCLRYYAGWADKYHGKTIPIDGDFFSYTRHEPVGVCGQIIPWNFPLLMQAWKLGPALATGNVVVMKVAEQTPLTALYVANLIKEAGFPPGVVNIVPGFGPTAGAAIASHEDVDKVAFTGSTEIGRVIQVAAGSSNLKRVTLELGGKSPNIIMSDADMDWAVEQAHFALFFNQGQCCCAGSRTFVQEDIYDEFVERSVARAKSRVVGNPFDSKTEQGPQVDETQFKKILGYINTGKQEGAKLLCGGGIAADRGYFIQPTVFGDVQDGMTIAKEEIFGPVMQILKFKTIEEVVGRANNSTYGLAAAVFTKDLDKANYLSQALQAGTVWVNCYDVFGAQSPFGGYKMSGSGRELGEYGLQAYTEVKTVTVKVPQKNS


Tests used:
[1] = test system: mtALDH-A549 cells; assay: Necrotic cell death, trypan blue exclusion assay; assay type: cell-based, human; conditions: for necrotic cell death (percentage of stained cells to total cells): mtALDH-A549 cells, 10 μM inhibitor pretreatment 30 minutes; for necrotic cell death, trypan blue exclusion: mtALDH overexpression (mtALDH-A549)
Source text: (§1) Plasmid Construction and Transfection: For human mt ALDH plasmid construction, full-length human mtALDH cDNA without stop codon was amplified from a human lung cDNA library (Clontech, Mountain View Calif.) by RT-PCR using following primers, sense: […] (SEQ ID NO. 1), antisense: […] (SEQ ID NO. 2). The resulting human mtALDH cDNA was subcloned into the plasmid vector pcDNA3.1 (Invitrogen, Carlsbad, Calif.). The mtALDH sequence (SEQ ID NO. 3) was confirmed by direct nucleotide sequencing. mtALDH-pcDNA3 and empty pcDNA3.1 plasmids were transfected into A549 cells using LipofectAMINE (Invitrogen, Carlsbad, Calif.). The transfected cells were then selected by G418 sulfate at 500 μg/mL for ten days. A single clone was selected by limited dilution and mtALDH protein expression was confirmed by Western blotting with anti-V5 antibody (Invitrogen, Carlsbad, Calif.).
(§2) The cultured media were collected and saved.

[2] = test system: Neo-A549 cells; assay: Necrotic cell death, trypan blue exclusion assay; assay type: cell-based, human; conditions: 10 μM inhibitor pretreatment 30 minutes
Source text: as §2

[3] = test system: Neo-A549 cells; conditions: 10 μM inhibitor pretreatment 30 minutes, 48-hour hyperoxic exposure (95% O2, 5% CO2)
Procedure: Cell culture and Cell Treatment: A549 cells were purchased from American Type culture collection (ATCC, Manassas, Va.) and grown in Dulbecco's Modified Eagle Medium (DMEM) containing 10% fetal bovine serum, 50 μg/mL penicillin and 50 μg/mL streptomycin in 5% CO2 at 37° C. Normoxic exposure of the cells was conducted under room air and 5% CO2 in a humidified cell culture incubator at 37° C. Hyperoxic exposure of the cells was conducted in a humidified chamber (Billups and Rothenberg, Del Mar, Calif.) and the chamber was flushed with 95% O2, 5% CO2 (hyperoxia) at a flow rate of 10 liters per minute for 15 minutes prior to incubation at 37° c. In U0126 and LY294002 pretreatment experiments, cells were treated with or without 10 μM U0216 or LY294002 (two well-known inhibitors) for 30 minutes prior to normoxic or hyperoxic exposure.
The lactate dehydrogenase (LDH) assay kit was from Biovision (Mountain View, Calif.) and LDH activity was measured per manufacture's instruction. Briefly, cells were incubated in an incubator (5% CO2, 37° C.) for the appropriate time of treatment. The cultured media were collected and saved. […] The absorbance of all samples at 490 nm was measured using a microplate reader. The cytotoxicity was determined by the percentage of LDH activity in cultured medium over combined LDH activities of the cultured medium and cell lysate.

[4] = test system: mtALDH-A549 cells; assay type: cell-based; conditions: 10 μM inhibitor pretreatment 30 minutes, 48-hour hyperoxic exposure (95% O2, 5% CO2)
Source text: as §1, §2

[5] = test system: mtALDH-A549 cells; assay: Intracellular and mitochondrial ROS levels by flow cytometry; assay type: cell-based, human
Procedure: Assessment of Intracellular and Mitochondrial ROS Levels: After normoxic or hyperoxic treatment, cultured cells were stained with 10 μM of 2′,7′-dicholordihydrofluorescein diacetate, succinimidyl ester (OxyBURST® Green H2DCFDA (2′,7′-dichlorodihydrofluorescin diacetate)), SE, Molecular Probe, Oreg.) for 10 minutes. The stained cells were washed three times with PBS and then trypsinized with 0.025% trypsin and 0.05% EDTA. The resuspended cells were subjected to fluorescent intensity measured by flow cytometry. For mitochondria-derived ROS measurement, cells were incubated with 10 μM dihydrorhodamaine 123 (Molecular Probe, OR) for 15 minutes. The stained cells were washed three times with PBS and then trypsinized with 0.25% trypsin, 0.05% EDTA. The resuspended cells were subjected to rhodamine 123 fluorescent intensity measurement by flow cytometry. Statistical Analysis: The results are expressed as the mean±SEM of data obtained from two or more experiments; or where appropriate, as mean±SD. Statistical analysis was performed using the student t test for paired comparisons and ANOVA for multiple comparisons. A value of p<0.05 was considered significant.

[6] = molecular target: T1, mtALDH; assay: mtALDH activity assay (NADH formation at 340 nm); assay type: cell-based; conditions: cell homogenate supernatant, p<0.01, n=6
Procedure: mtALDH Activity Assay: mtALDH activity was measured as described previously (9). Neo-A549 and mtALDH A549 cells cultured on plates were collected in buffer of 50 mM Tris-HCl, pH 8.5. Resuspended cells were sonicated at setting 4 for 5 seconds by VirSonic sonicator from VirTis (Gardiner, N.Y.). The cell homogenates were centrifuged at 12,000×g for 10 minutes. The supernatants were saved and protein concentration was determined. Mitochondria were isolated from cultured cells using a mitochondria isolation kit from Pierce (Rockford, Ill.). The enzyme activity assay was carried out in 100 μL of 50 mM Tris-HCl, pH 8.5 containing 50 μg prepared protein, 15 μM propionaldehyde, 1 mM NAD and 1 mM 4-methylpyrazole. The ALDH activity was determined by spectrometer for NADH formation at 340 nm.

[7] = test system: mtALDH-A549 cells; assay: Apoptotic cell death, Annexin V staining and flow cytometry; assay type: cell-based, human; conditions: mtALDH overexpression (mtALDH-A549), 48-hour hyperoxic treatment; Neo-A549 0.84%
Procedure: Analysis of Apoptotic Cells: The Apoptosis Detection kit was from R&D System (Minneapolis, Minn.). Treated cells were trypsinized and collected by centrifugation at 500×g for 5 minutes. Cells were washed with cold PBS once and resuspended in 100 uL binding buffer containing 10 mM HEPES pH 7.4, 150 mM NaCl, 5 mM KCl, 1 mM MgCl2 and 1.8 mM CaCl2. Cells were stained with Annexin V-FITC (0.05 μg per sample) for 15 minutes according to manufacturer's instructions. The stained cells were then subjected to flow cytometry analysis.

[8] = test system: Akt; assay: Akt phosphorylation and total Akt, Western blotting; assay type: cell-based, human
Procedure: (§3) Western Blotting Analysis: Antibodies were purchased from Cell Signaling Technology (Beverly, Mass.) and they were used according to manufacturer's instructions. Cultured cells after treatment were washed with cold PBS three times, and the 300 μl of sample lysis buffer (62.5 mM Tris-HCl pH 6.8, 2% w/v SDS, 10% glycerol, 200 mM dithiothreitol, and protease cocktails) was added to each plate. Cell lysates were centrifuged at 12,000×g for 10 minutes. The supernatants were saved for analysis. Protein concentration was determined by bicinchoninic acid (BCA) protein assay kit (Sigma, St. Louis, Mo.). Samples containing 50 μg of protein in loading sample buffer were boiled for 5 minutes and loaded on 12% Tris-Glycine SDS-PAGE gels. Gels were run at 120 V for approximately two hours and transferred overnight at 20 V to nitrocellulose membranes. Membranes were incubated with the blocking buffer containing 5% non-fat mile in PBST (0.1% Tween-20 in PBS) for one hour, washed with PBST and incubated overnight with the primary antibody against either phosphorylated ERK or phosphorylated Akt (Ser473). The membranes were washed in PBST and proteins were visualized using horseradish peroxidase (HRP)-conjugated anti-rabbit IgG and the enhanced chemiluminescence (Amersham Bioscience, Piscataway, N.J.). The membranes were stripped using a standard stripping solution (62.5 mM Tris-HCl, pH 6.8, 2% SDS and 100 mM β-mercaptoethanol) at 50° C., and reprobed with nonphosphorylated ERK, nonphosphorylated Akt and β-actin antibodies. Phosphorylated ERK and phosphorylated Akt protein band intensities on autoradiogram were analyzed with Image-Quant (Molecular Dynamics, Sunnyvale, Calif.) and normalized by nonphosphorylated ERK, nonphosphorylated Akt or β-actin in the same sample, respectively.

[9] = test system: ERK; assay: ERK phosphorylation, Western blotting; assay type: cell-based, human; conditions: 48-hour normoxic conditions, normalized by total ERK
Procedure: as §3, with “The membranes were washed in PBST and proteins were visualized using horseradish peroxidase (HRP)-conjugated anti-rabbit IgG and the enhanced chemiluminescence (Amersham Bioscience, Piscataway, N.J.). The membranes were stripped using a standard stripping solution (62.5 mM Tris-HCl, pH 6.8, 2% SDS and 100 mM β-mercaptoethanol) at 50° C., and reprobed with nonphosphorylated ERK, nonphosphorylated Akt and β-actin antibodies.” left out

[10] = 48-hour hyperoxic exposure (95% O2, 5% CO2)

Row | Molecule | necrotic cell death (percentage of stained cells to total cells) [1, 10] [%] | necrotic cell death (percentage of stained cells to total cells) ([1]; 48-hour normoxic exposure) [%] | necrotic cell death (percentage of stained cells to total cells) [2, 10] [%] | necrotic cell death (percentage of stained cells to total cells) ([2]; 48-hour normoxic exposure) [%] | necrotic cell death (LDH cytotoxicity) [3] [%] | necrotic cell death (LDH cytotoxicity) [4] [%] | intracellular ROS level (H2DCFDA staining) ([5]; 24-hour hyperoxia) | intracellular ROS level versus Neo-A549 cells ([5]; 24-hour hyperoxia, p<0.001) | mitochondrial ROS level (dihydrorhodamine 123) versus Neo-A549 cells ([5]; 24-hour hyperoxic exposure, p<0.001) | total mtALDH activity in mtALDH-A549 cells compared to Neo-A549 cells [6] | apoptotic cell death (Annexin V positive cells) [7] [%] | Akt phosphorylation in mtALDH-A549 cells versus Neo-A549 cells ([8]; 0, 24 and 48-hour hyperoxic exposure) | phosphorylated Akt level in mtALDH-A549 cells versus Neo-A549 cells ([8]; first 24-hour culture under normoxic conditions) | total Akt in mtALDH-A549 cells compared to Neo-A549 cells ([8]; prior to hyperoxic treatment (0 hour)) | necrotic cell death, trypan blue exclusion ([1]; 24-hour hyperoxic exposure, Neo-A549 25.3%) [%] | necrotic cell death, trypan blue exclusion ([1]; 48-hour hyperoxic exposure, Neo-A549 50.5%) [%] | necrotic cell death, trypan blue exclusion ([1]; 72-hour hyperoxic exposure, Neo-A549 52.4%) [%] | ERK phosphorylation in mtALDH-A549 cells compared to Neo-A549 cells [9]
1 | O=c1cc(N2CCOCC2)oc2c(-c3ccccc3)cccc12 [LY294002] | 28.0 | 4.3 | 86.6 | 9.0 |  |  |  |  |  |  |  |  |  |  |  |  |  | 
2 | N#CC(=C(/N)Sc1ccccc1N)/C(C#N)=C(\N)Sc1ccccc1N [U0126] | 26.0 | 11.6 | 44.5 | 12.6 | 14.1 | 9.4 |  |  |  |  |  |  |  |  |  |  |  | 
3 | mtALDH: human mitochondrial aldehyde dehydrogenase (SEQ ID NO. 3) overexpressed as V5 fusion protein in A549 cells by pcDNA3.1 plasmid transfection (protein, listed as Homo sapiens, V5 tag) MLRAAARFGPRLGRRLLSAAATQAVPAPNQQPEVFCNQIFINNEWHDAVSRKTFPTVNPSTGEVICQVAEGDKEDVDKAVKAARAAFQLGSPWRRMDASHRGRLLNRLADLIERDRTYLAALETLDNGKPYVISYLVDLDMVLKCLRYYAGWADKYHGKTIPIDGDFFSYTRHEPVGVCGQIIPWNFPLLMQAWKLGPALATGNVVVMKVAEQTPLTALYVANLIKEAGFPPGVVNIVPGFGPTAGAAIASHEDVDKVAFTGSTEIGRVIQVAAGSSNLKRVTLELGGKSPNIIMSDADMDWAVEQAHFALFFNQGQCCCAGSRTFVQEDIYDEFVERSVARAKSRVVGNPFDSKTEQGPQVDETQFKKILGYINTGKQEGAKLLCGGGIAADRGYFIQPTVFGDVQDGMTIAKEEIFGPVMQILKFKTIEEVVGRANNSTYGLAAAVFTKDLDKANYLSQALQAGTVWVNCYDVFGAQSPFGGYKMSGSGRELGEYGLQAYTEVKTVTVKVPQKNS |  |  |  |  |  |  | increased only approximately two fold | significantly decreased | significantly decreased | increased more than two fold | 0.48 | 2-3 times | two-fold higher | about 1.8 fold | 6.5 | 9.1 | 15.1 | seven-fold increase
